This data set deals with the molecule itself. The experiment in a line: SEC.

B1: Xanthomonas albilineans Cas2 (enzyme)
chain: MMVLVSYDVSTSSPGGDKRLRKVAKACRDLGQRVQFSVFEIEVDPAQWTALRQRLCDLIDPDIDSLRFYHLGAKWEARVEHVGAKPSLDLKGPLIF
notes: Cas2 of Xanthomonas albilineans, subtype I-C CRISPR-Cas system; synthetic cas2 gene in pET21a; residue numbers in the structure run to 96 (C-terminal tails 87-96 / 86-96 not modelled); also called XaCas2; WT XaCas2; not shown: His6, C-terminal, kept
In general, stoichiometry N refers to the number of molecules, sites or subunits per partner or assembly. Regarding B1, the “stoichiometry N” value is 2.

Values taken from paper PMC5438308, “Structural and dynamic insights into the role of conformational switching in the nuclease activity of the Xanthomonas albilineans Cas2 in CRISPR-mediated adaptive immunity” (Structural Dynamics, 2017).
